# According to paper PMC10540216, “Activity Guided Azide-methyllysine Photo-trapping for Substrate Profiling of Lysine Demethylases” (Journal of the American Chemical Society, 2023):
# Tested on: KDM4A-I71AzF
# Assay: CASI: photo-crosslinking with HEK293T cell extracts, StrepTactin enrichment and LC-MS/MS proteomics;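 also: lysates from HEK293T cells pretreated with a KDM4 inhibitor to raise proteome methylation, affinity-purified after ±UV, gel-resolved, trypsin-digested, with exclusive unique peptides per protein averaged per condition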
# Type: binding, human
# Details: sheet "Final results but with 0.01"
row,Molecule,Fold change (+UV/-UV)
1,"PABP4_HUMAN (protein, UniProt Q13310 1-644, looked up) Polyadenylate-binding protein …: MNAAASSYPMASLYVGDLHSDVTEAMLYEKFSPAGPVLSIRVCRDMITRRSLGYAYVNFQQPADAERALDTMNFDVIKGKPIRIMWSQRDPSLRKSGVGNVFIKNLDKSIDNKALYDTFSAFGNILSCKVVCDENGSKGYAFVHFETQEAADKAIEKMNGMLLNDRKVFVGRFKSRKEREAELGAKAKEFTNVYIKNFGEEVDDESLKELFSQFGKTLSVKVMRDPNGKSKGFGFVSYEKHEDANKAVEEMNGKEISGKIIFVGRAQKKVERQAELKRKFEQLKQERISRYQGVNLYIKNLDDTIDDEKLRKEFSPFGSITSAKVMLEDGRSKGFGFVCFSSPEEATKAVTEMNGRIVGSKPLYVALAQRKEERKAHLTNQYMQRVAGMRALPANAILNQFQPAAGGYFVPAVPQAQGRPPYYTPNQLAQMRPNPRWQQGGRPQGFQGMPSAIRQSGPRPTLRHLAPTGSECPDRLAMDFGGAGAAQQGLTDSCQSGGVPTAVQNLAPRAAVAAAAPRAVAPYKYASSVRSPHPAIQPLQAPQPAVHVQGQEPLTASMLAAAPPQEQKQMLGERLFPLIQTMHSNLAGKITGMLLEIDNSELLHMLESPESLRSKVDEAVAVLQAHHAKKEAAQKVGAVAAATS",0
2,"ZYX_HUMAN (protein, UniProt Q15942 2-572, looked up) Zyxin: AAPRPSPAISVSVSAPAFYAPQKKFGPVVAPKPKVNPFRPGDSEPPPAPGAQRAQMGRVGEIPPPPPEDFPLPPPPLAGDGDDAEGALGGAFPPPPPPIEESFPPAPLEEEIFPSPPPPPEEEGGPEAPIPPPPQPREKVSSIDLEIDSLSSLLDDMTKNDPFKARVSSGYVPPPVATPFSSKSSTKPAAGGTAPLPPWKSPSSSQPLPQVPAPAQSQTQFHVQPQPQPKPQVQLHVQSQTQPVSLANTQPRGPPASSPAPAPKFSPVTPKFTPVASKFSPGAPGGSGSQPNQKLGHPEALSAGTGSPQPPSFTYAQQREKPRVQEKQHPVPPPAQNQNQVRSPGAPGPLTLKEVEELEQLTQQLMQDMEHPQRQNVAVNELCGRCHQPLARAQPAVRALGQLFHIACFTCHQCAQQLQGQQFYSLEGAPYCEGCYTDTLEKCNTCGEPITDRMLRATGKAYHPHCFTCVVCARPLEGTSFIVDQANRPHCVPDYHKQYAPRCSVCSEPIMPEPGRDETVRVVALDKNFHMKCYKCEDCGKPLSIEADDNGCFPLDGHVLCRKCHTARAQT",0
3,"DDX1_HUMAN (protein, UniProt Q92499 1-740, looked up) ATP-dependent RNA helicase …: MAAFSEMGVMPEIAQAVEEMDWLLPTDIQAESIPLILGGGDVLMAAETGSGKTGAFSIPVIQIVYETLKDQQEGKKGKTTIKTGASVLNKWQMNPYDRGSAFAIGSDGLCCQSREVKEWHGCRATKGLMKGKHYYEVSCHDQGLCRVGWSTMQASLDLGTDKFGFGFGGTGKKSHNKQFDNYGEEFTMHDTIGCYLDIDKGHVKFSKNGKDLGLAFEIPPHMKNQALFPACVLKNAELKFNFGEEEFKFPPKDGFVALSKAPDGYIVKSQHSGNAQVTQTKFLPNAPKALIVEPSRELAEQTLNNIKQFKKYIDNPKLRELLIIGGVAARDQLSVLENGVDIVVGTPGRLDDLVSTGKLNLSQVRFLVLDEADGLLSQGYSDFINRMHNQIPQVTSDGKRLQVIVCSATLHSFDVKKLSEKIMHFPTWVDLKGEDSVPDTVHHVVVPVNPKTDRLWERLGKSHIRTDDVHAKDNTRPGANSPEMWSEAIKILKGEYAVRAIKEHKMDQAIIFCRTKIDCDNLEQYFIQQGGGPDKKGHQFSCVCLHGDRKPHERKQNLERFKKGDVRFLICTDVAARGIDIHGVPYVINVTLPDEKQNYVHRIGRVGRAERMGLAISLVATEKEKVWYHVCSSRGKGCYNTRLKEDGGCTIWYNEMQLLSEIEEHLNCTISQVEPDIKVPVDEFDGKVTYGQKRAAGGGSYKGHVDILAPTVQELAALEKEAQTSFLHLGYLPNQLFRTF",1.333
4,"PLOD2_HUMAN (protein, UniProt O00469 26-737, looked up) Procollagen-lysine,2-oxoglutar …: ADSEKPSSIPTDKLLVITVATKESDGFHRFMQSAKYFNYTVKVLGQGEEWRGGDGINSIGGGQKVRLMKEVMEHYADQDDLVVMFTECFDVIFAGGPEEVLKKFQKANHKVVFAADGILWPDKRLADKYPVVHIGKRYLNSGGFIGYAPYVNRIVQQWNLQDNDDDQLFYTKVYIDPLKREAINITLDHKCKIFQTLNGAVDEVVLKFENGKARAKNTFYETLPVAINGNGPTKILLNYFGNYVPNSWTQDNGCTLCEFDTVDLSAVDVHPNVSIGVFIEQPTPFLPRFLDILLTLDYPKEALKLFIHNKEVYHEKDIKVFFDKAKHEIKTIKIVGPEENLSQAEARNMGMDFCRQDEKCDYYFSVDADVVLTNPRTLKILIEQNRKIIAPLVTRHGKLWSNFWGALSPDGYYARSEDYVDIVQGNRVGVWNVPYMANVYLIKGKTLRSEMNERNYFVRDKLDPDMALCRNAREMGVFMYISNRHEFGRLLSTANYNTSHYNNDLWQIFENPVDWKEKYINRDYSKIFTENIVEQPCPDVFWFPIFSEKACDELVEEMEHYGKWSGGKHHDSRISGGYENVPTDDIHMKQVDLENVWLHFIREFIAPVTLKVFAGYYTKGFALLNFVVKYSPERQRSLRPHHDASTFTINIALNNVGEDFQGGGCKFLRYNCSIESPRKGWSFMHPGRLTHLHEGLPVKNGTRYIAVSFIDP",0.75
5,"MTA2_HUMAN (protein, UniProt O94776 1-668, looked up) Metastasis-associated protein …: MAANMYRVGDYVYFENSSSNPYLVRRIEELNKTANGNVEAKVVCLFRRRDISSSLNSLADSNAREFEEESKQPGVSEQQRHQLKHRELFLSRQFESLPATHIRGKCSVTLLNETDILSQYLEKEDCFFYSLVFDPVQKTLLADQGEIRVGCKYQAEIPDRLVEGESDNRNQQKMEMKVWDPDNPLTDRQIDQFLVVARAVGTFARALDCSSSIRQPSLHMSAAAASRDITLFHAMDTLQRNGYDLAKAMSTLVPQGGPVLCRDEMEEWSASEAMLFEEALEKYGKDFNDIRQDFLPWKSLASIVQFYYMWKTTDRYIQQKRLKAAEADSKLKQVYIPTYTKPNPNQIISVGSKPGMNGAGFQKGLTCESCHTTQSAQWYAWGPPNMQCRLCASCWIYWKKYGGLKTPTQLEGATRGTTEPHSRGHLSRPEAQSLSPYTTSANRAKLLAKNRQTFLLQTTKLTRLARRMCRDLLQPRRAARRPYAPINANAIKAECSIRLPKAAKTPLKIHPLVRLPLATIVKDLVAQAPLKPKTPRGTKTPINRNQLSQNRGLGGIMVKRAYETMAGAGVPFSANGRPLASGIRSSSQPAAKRQKLNPADAPNPVVFVATKDTRALRKALTHLEMRRAARRPNLPLKVKPTLIAVRPPVPLPAPSHPASTNEPIVLED",4
6,"SFPQ_HUMAN (protein, UniProt P23246 1-707, looked up) Splicing factor, proline- and …: MSRDRFRSRGGGGGGFHRRGGGGGRGGLHDFRSPPPGMGLNQNRGPMGPGPGQSGPKPPIPPPPPHQQQQQPPPQQPPPQQPPPHQPPPHPQPHQQQQPPPPPQDSSKPVVAQGPGPAPGVGSAPPASSSAPPATPPTSGAPPGSGPGPTPTPPPAVTSAPPGAPPPTPPSSGVPTTPPQAGGPPPPPAAVPGPGPGPKQGPGPGGPKGGKMPGGPKPGGGPGLSTPGGHPKPPHRGGGEPRGGRQHHPPYHQQHHQGPPPGGPGGRSEEKISDSEGFKANLSLLRRPGEKTYTQRCRLFVGNLPADITEDEFKRLFAKYGEPGEVFINKGKGFGFIKLESRALAEIAKAELDDTPMRGRQLRVRFATHAAALSVRNLSPYVSNELLEEAFSQFGPIERAVVIVDDRGRSTGKGIVEFASKPAARKAFERCSEGVFLLTTTPRPVIVEPLEQLDDEDGLPEKLAQKNPMYQKERETPPRFAQHGTFEYEYSQRWKSLDEMEKQQREQVEKNMKDAKDKLESEMEDAYHEHQANLLRQDLMRRQEELRRMEELHNQEMQKRKEMQLRQEEERRRREEEMMIRQREMEEQMRRQREESYSRMGYMDPRERDMRMGGGGAMNMGDPYGSGGQKFPPLGGGGGIGYEANPGVPPATMSGSMMGSDMRTERFGQGGAGPVGGQGPRGMGPGTPAGYGRGREEYEGPNKKPRF",0.9
